According to the supplement of paper PMC10598134:
± gives the standard deviation.

Test: collision cross section of unmodified peptide (TIMS, N2, iRT-aligned); higher = larger / more extended gas-phase ion
Experimental: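 Unmodified synthetic counterpart peptides (ProteomeTools / JPT), analysed by nanoLC-TIMS-QTOF (dda-PASEF). 1/K0 was aligned run-wise to spiked iRT peptides and converted to CCS in N2 (Mason-Schamp). Values are the mean of 1-3 technical replicates for the most abundant feature at each charge state. The same unmodified peptide is repeated across rows and is averaged.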

GPPRGGPGGELPR
collision cross section (charge state: 2): 366.24 ± 0.38 Å² | collision cross section (charge state: 3): 471.24 ± 3.4 Å²

PARGLYSR
collision cross section (charge state: 2): 333.72 ± 0.072 Å² | collision cross section (charge state: 3): 420.97 ± 6 Å²

AYILNLVK
collision cross section (charge state: 2): 331.04 ± 1.1 Å²

IVNVSLADLR
collision cross section (charge state: 2): 359.17 ± 0.57 Å²

PASGAGAGAGAGKR
collision cross section (charge state: 2): 378.29 ± 1.2 Å² | collision cross section (charge state: 3): 457.42 ± 4 Å²

GFGRGGAESHTFK
collision cross section (charge state: 2): 384.5 ± 0.2 Å² | collision cross section (charge state: 3): 473.03 ± 1.3 Å²

GETASKLQSEISR
collision cross section (charge state: 2): 404.79 ± 2.8 Å² | collision cross section (charge state: 3): 463.95 ± 4.6 Å²

DYGNSPLHR
collision cross section (charge state: 2): 339.65 ± 0.48 Å² | collision cross section (charge state: 3): 430.38 ± 2 Å²

RGATPPAPPR
collision cross section (charge state: 2): 338.24 ± 0.44 Å² | collision cross section (charge state: 3): 461.07 ± 2.4 Å²

GTITVSAQELKDNR
collision cross section (charge state: 2): 437.3 ± 1.6 Å² | collision cross section (charge state: 3): 507.47 ± 4.6 Å²

THLAPYSDELR
collision cross section (charge state: 2): 381.48 ± 0.47 Å² | collision cross section (charge state: 3): 446.52 ± 1.7 Å²

SGGGYGGDRSSGGGYSGDR
collision cross section (charge state: 3): 476.79 ± 0.56 Å²

LDEKENLSAK
collision cross section (charge state: 2): 363.87 ± 1.4 Å² | collision cross section (charge state: 3): 445.27 ± 6.6 Å²

GEQGEPGAPGIRTGIQGLK
collision cross section (charge state: 2): 452.7 ± 0.99 Å² | collision cross section (charge state: 3): 505.34 ± 2.1 Å²

LGNDFHTNKR
collision cross section (charge state: 2): 369.4 ± 1.5 Å² | collision cross section (charge state: 3): 431.93 ± 3.7 Å²

VVPGYGHAVLR
collision cross section (charge state: 2): 378.3 ± 0.16 Å² | collision cross section (charge state: 3): 449.83 ± 0.86 Å²

LLEEEDSKLK
collision cross section (charge state: 2): 382.28 ± 0.34 Å² | collision cross section (charge state: 3): 444.51 ± 4.2 Å²

ATAVVDGAFK
collision cross section (charge state: 2): 329.06 ± 0.69 Å²

KFGVLSDNFK
collision cross section (charge state: 2): 368.49 ± 1.5 Å² | collision cross section (charge state: 3): 446.92 ± 3.4 Å²

APEYLHR
collision cross section (charge state: 2): 313.96 ± 0.73 Å²

GFPGIQGRK
collision cross section (charge state: 2): 338.49 ± 1.5 Å² | collision cross section (charge state: 3): 406.74 ± 2 Å²

LLRGVGGSHGR
collision cross section (charge state: 2): 358.18 ± 0.097 Å² | collision cross section (charge state: 3): 450.84 ± 3.9 Å²

AQPSASLGVGYR
collision cross section (charge state: 2): 364.53 ± 0.14 Å²

GGGGGRGGLHDFR
collision cross section (charge state: 2): 368.29 ± 0.36 Å² | collision cross section (charge state: 3): 457.27 ± 2.8 Å²

GARLPGPVSSAR
collision cross section (charge state: 2): 359.36 ± 0.74 Å² | collision cross section (charge state: 3): 465.32 ± 9.3 Å²

GEAGPTGPQGEPGVR
collision cross section (charge state: 2): 385.03 ± 0.4 Å²

DYSAPVNFISAGLKK
collision cross section (charge state: 2): 443.09 ± 2.3 Å² | collision cross section (charge state: 3): 512.68 ± 2.7 Å²

RGPPGAK
collision cross section (charge state: 2): 308.91 ± 1.4 Å²

VDIDAPDVSIEGPDAKLK
collision cross section (charge state: 2): 460.39 ± 2.9 Å² | collision cross section (charge state: 3): 544.84 ± 1.8 Å²

GTISAPGKVVTAAAQAK
collision cross section (charge state: 2): 464.56 ± 3.2 Å² | collision cross section (charge state: 3): 518.69 ± 4.3 Å²

VPGALAAAKAAK
collision cross section (charge state: 2): 365.46 ± 0.4 Å² | collision cross section (charge state: 3): 442.33 ± 1.2 Å²

HSPTLPEPGGLRLELPLSR
collision cross section (charge state: 3): 583.19 Å²

TVSKVDDFLANEAK
collision cross section (charge state: 2): 420.02 ± 1.7 Å² | collision cross section (charge state: 3): 500.46 ± 2.4 Å²

GTPGKPGPR
collision cross section (charge state: 2): 311.01 ± 0.77 Å²

GLPGEPGPR
collision cross section (charge state: 2): 309.4 ± 0.22 Å²

GFPGAPGLPGLK
collision cross section (charge state: 2): 357.61 ± 0.4 Å²

DYILEGEPGK
collision cross section (charge state: 2): 348.93 ± 0.15 Å²

LAPEYEAAATR
collision cross section (charge state: 2): 358.54 ± 0.15 Å² | collision cross section (charge state: 3): 432.76 ± 0.89 Å²

YIDNQVVSTKGER
collision cross section (charge state: 2): 414.64 ± 0.66 Å² | collision cross section (charge state: 3): 500.48 ± 1 Å²

YEQEHAAIQDKLFQVAK
collision cross section (charge state: 3): 555.79 ± 2.3 Å²

LEEVTGKLQVAR
collision cross section (charge state: 2): 400.35 ± 5.3 Å² | collision cross section (charge state: 3): 475.59 ± 4.3 Å²

DFDTALKHYDK
collision cross section (charge state: 2): 391.79 ± 0.64 Å² | collision cross section (charge state: 3): 447.79 ± 3.3 Å²

SAGSVESPSVSSTHR
collision cross section (charge state: 2): 394.4 ± 0.14 Å² | collision cross section (charge state: 3): 493.72 ± 0.22 Å²
